Where a chain is given by its changes, count along the chain named.
B1: MS-66 (antibody)
VH: not shown
VL: DIVLTQSPHSLSVTPGESASISCKSSHSLIHGDRNNYLAWYVQKPGRSPQLLIYLASSRASGVPDRFSGSGSDKDFTLKISRVETEDVGTYYCMQGRESPWTFGQGTKVDIKRTVAAPSVFIFPPSDEQLKSGTASVVCLLNNFYPREAKVQWKVDNALQSGNSQESVTEQDSKDSTYSLSSTLTLSKADYEKHKVYACEVTHQGLSSPVTKSFNRGEC
B2: MS-67 (antibody)
VH: not shown
VL: B1 VL with I2F, H9L
B3: MS-68 (antibody)
VH: not shown
VL: B1 VL with I2F, S12P
B4: MS-69 (antibody)
VH: not shown
VL: B1 VL with I2F, S18P
B5: MS-70 (antibody, V domains shown)
VH: QVQLVQSGPEVRKPGTSVKVSCKAPGNTLKTYDLHWVRSVPGQGLQWMGWISHEGDKKVIVERFKAKVTIDWDRSTNTAYLQLSGLTSGDTAVYYCAKGSKHRLRDYALYDDDGALNWAVDVDYLSNLEFWGQGTAVTVSS
VL: DFVLTQSPHSLSVTPGESASISCKSSHSLIHGDRNNYLAWYVQKPGQSPQLLIYLASSRASGVPDRFSGSGSDKDFTLKISRVETEDVGTYYCMQGRESPWTFGQGTKVDIKR
B6: MS-71 (antibody)
VH: not shown
VL: B1 VL with I2F, D73G
B7: MS-72 (antibody, V domains shown)
VH: B5 VH
VL: B5 VL with Q47R, K74T
B8: MS-73 (antibody)
VH: not shown
VL: B1 VL with I2F, T85A
B9: MS-74 (antibody, V domains shown)
VH: B5 VH
VL: B5 VL with Q47R, T90V
B10: MS-75 (antibody, V domains shown)
VH: B5 VH with P25S
VL: B5 VL with Q47R
B11: MS-66 (antibody)
VH: not shown
VL: B1 VL
B12: MS-67 (antibody)
VH: not shown
VL: B1 VL with I2F, H9L

molecular target: HIV-1 pseudovirus X1193_c1 (HIV-1); assay: cell-based or functional assay

In order of falling “IC50 (neutralization in TZM.bl cells)” value:
1. B10  0.174 µg/mL
2. B5  0.111 µg/mL
3. B3  0.1 µg/mL
4. B1  0.086 µg/mL
5. B9  0.086 µg/mL
6. B8  0.085 µg/mL
7. B2  0.075 µg/mL
8. B4  0.072 µg/mL
9. B6  0.072 µg/mL
10. B7  0.072 µg/mL

In order of falling “IC80 (neutralization in TZM.bl cells)” value:
1. B10  0.591 µg/mL
2. B5  0.413 µg/mL
3. B8  0.327 µg/mL
4. B4  0.326 µg/mL
5. B1  0.322 µg/mL
6. B2  0.303 µg/mL
7. B9  0.296 µg/mL
8. B3  0.287 µg/mL
9. B6  0.265 µg/mL
10. B7  0.258 µg/mL

molecular target: HIV-1 pseudovirus 6952.v1.c20 (HIV-1); assay: cell-based or functional assay

In order of rising “IC50 (neutralization in TZM.bl cells)” value:
1. B4  0.182 µg/mL
2. B3  0.206 µg/mL
3. B8  0.222 µg/mL
4. B2  0.28 µg/mL
5. B1  0.284 µg/mL
6. B5  0.285 µg/mL
7. B9  0.285 µg/mL
8. B6  0.325 µg/mL
9. B7  0.643 µg/mL
10. B10  0.977 µg/mL

Going from B1 to B2, the “IC80 (neutralization in TZM.bl cells)” value falls from > 25 µg/mL to 7.89 µg/mL.

Compared with B3, B4 is 4.2-fold lower in “IC80 (neutralization in TZM.bl cells)” value: 12.9 µg/mL for the first, 3.06 µg/mL for the second.

First: B5
Second: B6
The “IC80 (neutralization in TZM.bl cells)” value of the first is 1.6-fold lower: 4.84 µg/mL for the first, 7.92 µg/mL for the second.

First: B7
Second: B8
The “IC80 (neutralization in TZM.bl cells)” value of the first is 1.8-fold higher: 12.4 µg/mL for the first, 6.99 µg/mL for the second.

First: B9
Second: B10
The “IC80 (neutralization in TZM.bl cells)” value of the first is lower: 15.1 µg/mL for the first, > 25 µg/mL for the second.

molecular target: HIV-1 pseudovirus Ce1176_A3 (HIV-1); assay: cell-based or functional assay

In order of rising “IC50 (neutralization in TZM.bl cells)” value:
1. B9  0.028 µg/mL
2. B8  0.035 µg/mL
3. B6  0.04 µg/mL
4. B5  0.06 µg/mL
5. B7  0.074 µg/mL
6. B4  0.087 µg/mL
7. B3  0.096 µg/mL
8. B2  0.105 µg/mL
9. B10  0.139 µg/mL
10. B1  0.165 µg/mL

In order of falling “IC80 (neutralization in TZM.bl cells)” value:
1. B1  5.43 µg/mL
2. B10  2.79 µg/mL
3. B2  1.9 µg/mL
4. B4  1.71 µg/mL
5. B3  1.64 µg/mL
6. B7  1.3 µg/mL
7. B5  0.968 µg/mL
8. B6  0.796 µg/mL
9. B8  0.581 µg/mL
10. B9  0.564 µg/mL

molecular target: HIV-1 pseudovirus 263-8 (HIV-1); assay: cell-based or functional assay

In order of falling “IC50 (neutralization in TZM.bl cells)” value:
1. B7  0.02 µg/mL
2. B10  0.018 µg/mL
3. B1  0.017 µg/mL
4. B5  0.016 µg/mL
5. B6  0.014 µg/mL
6. B9  0.013 µg/mL
7. B2  0.011 µg/mL
8. B3  0.011 µg/mL
9. B4  0.01 µg/mL
10. B8  0.01 µg/mL

In order of falling “IC80 (neutralization in TZM.bl cells)” value:
1. B10  0.086 µg/mL
2. B1  0.06 µg/mL
3. B7  0.057 µg/mL
4. B5  0.047 µg/mL
5. B4  0.046 µg/mL
6. B6  0.041 µg/mL
7. B3  0.038 µg/mL
8. B2  0.037 µg/mL
9. B9  0.037 µg/mL
10. B8  0.032 µg/mL

molecular target: HIV-1 pseudovirus SC05.8C11.2344 (HIV-1); assay: cell-based or functional assay

In order of falling “IC50 (neutralization in TZM.bl cells)” value:
1. B1  0.811 µg/mL
2. B10  0.792 µg/mL
3. B7  0.791 µg/mL
4. B3  0.708 µg/mL
5. B2  0.631 µg/mL
6. B5  0.508 µg/mL
7. B8  0.461 µg/mL
8. B4  0.456 µg/mL
9. B6  0.425 µg/mL
10. B9  0.415 µg/mL

In order of falling “IC80 (neutralization in TZM.bl cells)” value:
1. B10  3.72 µg/mL
2. B7  2.85 µg/mL
3. B1  2.54 µg/mL
4. B2  2.14 µg/mL
5. B3  1.95 µg/mL
6. B9  1.94 µg/mL
7. B4  1.69 µg/mL
8. B8  1.62 µg/mL
9. B6  1.41 µg/mL
10. B5  1.36 µg/mL

molecular target: HIV-1 pseudovirus AC10.0.29 (HIV-1); assay: cell-based or functional assay

In order of rising “IC50 (neutralization in TZM.bl cells)” value:
1. B4  0.029 µg/mL
2. B2  0.031 µg/mL
3. B1  0.035 µg/mL
4. B6  0.035 µg/mL
5. B3  0.04 µg/mL
6. B8  0.041 µg/mL
7. B9  0.041 µg/mL
8. B7  0.051 µg/mL
9. B5  0.053 µg/mL
10. B10  0.055 µg/mL

In order of falling “IC80 (neutralization in TZM.bl cells)” value:
1. B10  0.442 µg/mL
2. B7  0.255 µg/mL
3. B9  0.216 µg/mL
4. B1  0.213 µg/mL
5. B5  0.206 µg/mL
6. B8  0.206 µg/mL
7. B2  0.186 µg/mL
8. B6  0.177 µg/mL
9. B3  0.169 µg/mL
10. B4  0.169 µg/mL

molecular target: HIV-1 Env of pseudovirus Du172.17 (HIV-1); assay: cell-based or functional assay

In order of falling “neutralization IC50” value:
1. B11  2.08 µg/mL
2. B12  1.76 µg/mL

In order of rising “neutralization IC80” value:
1. B12  9.31 µg/mL
2. B11  11.3 µg/mL

molecular target: HIV-1 Env of pseudovirus RHPA4259.7 (HIV-1); assay: cell-based or functional assay

In order of rising “neutralization IC50” value:
1. B12  0.129 µg/mL
2. B11  0.238 µg/mL

In order of falling “neutralization IC80” value:
1. B11  0.745 µg/mL
2. B12  0.706 µg/mL

molecular target: HIV-1 Env of pseudovirus 0260.v5.c36 (HIV-1); assay: cell-based or functional assay

In order of rising “neutralization IC50” value:
1. B12  0.023 µg/mL
2. B11  0.024 µg/mL

In order of rising “neutralization IC80” value:
1. B12  0.088 µg/mL
2. B11  0.092 µg/mL

molecular target: HIV-1 Env of pseudovirus BB1012-11.TC21 (HIV-1); assay: cell-based or functional assay

In order of rising “neutralization IC50” value:
1. B11  0.017 µg/mL
2. B12  0.017 µg/mL

In order of rising “neutralization IC80” value:
1. B12  0.071 µg/mL
2. B11  0.074 µg/mL

molecular target: HIV-1 Env of pseudovirus SC422661.8 (HIV-1); assay: cell-based or functional assay

In order of rising “neutralization IC50” value:
1. B12  0.549 µg/mL
2. B11  0.902 µg/mL

In order of falling “neutralization IC80” value:
1. B11  5.82 µg/mL
2. B12  2.83 µg/mL

molecular target: HIV-1 Env of pseudovirus CNE52 (HIV-1); assay: cell-based or functional assay

In order of rising “neutralization IC50” value:
1. B12  0.212 µg/mL
2. B11  0.408 µg/mL

In order of rising “neutralization IC80” value:
1. B12  1.81 µg/mL
2. B11  3.74 µg/mL

Source: patent US20220025021A1 (BETH ISRAEL DEACONESS MEDICAL CENTER, published 2022)
